Laboratory results: patent US20230340152A1 (published 2023)

Key:
Test in all cases: SPR (ProteOn), CD73 variant immobilized on HTG chip
[1] = biological target: T1, Human CD73 V144K+N185G, His-tagged (human, UniProt P21589 27-549)
T1 chain: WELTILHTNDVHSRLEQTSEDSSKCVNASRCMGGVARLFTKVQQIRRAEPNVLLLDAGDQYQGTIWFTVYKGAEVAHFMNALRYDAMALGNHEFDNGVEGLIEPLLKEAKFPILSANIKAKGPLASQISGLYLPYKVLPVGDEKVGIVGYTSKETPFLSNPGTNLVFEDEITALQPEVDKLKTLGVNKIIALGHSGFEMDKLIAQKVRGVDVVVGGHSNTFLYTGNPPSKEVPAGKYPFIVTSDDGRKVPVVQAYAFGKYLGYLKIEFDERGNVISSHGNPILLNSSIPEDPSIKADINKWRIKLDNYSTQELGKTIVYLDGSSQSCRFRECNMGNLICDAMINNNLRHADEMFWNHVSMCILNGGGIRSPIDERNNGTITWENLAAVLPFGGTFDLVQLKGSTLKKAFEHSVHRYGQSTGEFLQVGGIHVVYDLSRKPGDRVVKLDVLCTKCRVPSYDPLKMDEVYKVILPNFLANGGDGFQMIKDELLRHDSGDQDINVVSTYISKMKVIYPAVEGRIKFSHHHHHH
Protocol: (§1) Binding of MEDI9447 to wild-type and mutant CD73 proteins was measured by surface plasmon resonance (SPR) using a ProteOn instrument (BioRad). CD73 crude cell supernatant protein samples were diluted to 3 µg/ml in PBS, 0.005% Tween-20, pH 7.4 (BioRad) and immobilized to ~400 RU on a HTG tris-NTA sensor chip (BioRad) pre-activated with 10 mM NiSO₄, 10 mM MES, pH 6.0 (BioRad). An equivalently diluted crude cell supernatant sample from non-transfected cells was included as a reference channel control. Sensorgrams were recorded by flowing two-fold dilutions of MEDI9447 prepared in PBS, 0.005% Tween-20, pH 7.4, ranging from 5 nM to 0.31 nM. […] Antibody binding was measured at a flow rate of 100 µL/min with a 3 min association phase and 20 min dissociation phase. The sensor chip surface was regenerated between each run by an 800 s injection of 300 mM EDTA, pH 8.5 (BioRad) at a flow rate of 30 µL/min. Binding kinetics were analyzed using the ProteOn data analysis software. Double referencing was performed and, unless noted otherwise, a 1:1 Langmuir binding model was utilized to fit the data. Some CD73 variants containing mutations within the amino acid region 171-188 fit poorly to a 1:1 model (i.e., Chi² values >10% of Rmax). Where noted, these variants were fit with a heterogenous antigen (2:1) model. […] Due to the assay format (antigen immobilized) and the dimeric state of CD73, KD values may be exaggerated due to avidity effects. However, it is not anticipated that this impacts ranking of MEDI9447 binding to the different CD73 variants.

KO_Cterm CD73 chimera = biological target: T2, KO_Cterm CD73 chimera (human; chicken)
T2 construct: also called C-terminal domain-swapped CD73
T2 chain: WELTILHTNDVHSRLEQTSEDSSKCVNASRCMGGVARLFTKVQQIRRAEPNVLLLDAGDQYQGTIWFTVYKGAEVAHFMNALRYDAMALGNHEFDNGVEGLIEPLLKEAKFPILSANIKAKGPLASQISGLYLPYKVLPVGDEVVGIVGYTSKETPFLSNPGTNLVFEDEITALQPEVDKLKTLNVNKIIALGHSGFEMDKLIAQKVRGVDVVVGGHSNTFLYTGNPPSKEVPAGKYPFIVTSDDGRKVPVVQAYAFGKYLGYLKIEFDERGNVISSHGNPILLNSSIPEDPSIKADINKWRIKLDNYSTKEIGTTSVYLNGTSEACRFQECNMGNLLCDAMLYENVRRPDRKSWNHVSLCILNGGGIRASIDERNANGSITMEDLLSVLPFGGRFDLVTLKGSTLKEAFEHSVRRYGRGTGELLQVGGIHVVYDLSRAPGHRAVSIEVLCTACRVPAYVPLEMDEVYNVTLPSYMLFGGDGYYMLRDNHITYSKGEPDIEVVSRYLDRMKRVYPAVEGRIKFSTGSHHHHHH
Protocol: as §1

HDX_E1 CD73 chimera = biological target: T3, HDX_E1 CD73 chimera (human; chicken, UniProt P21589 27-553)
T3 chain: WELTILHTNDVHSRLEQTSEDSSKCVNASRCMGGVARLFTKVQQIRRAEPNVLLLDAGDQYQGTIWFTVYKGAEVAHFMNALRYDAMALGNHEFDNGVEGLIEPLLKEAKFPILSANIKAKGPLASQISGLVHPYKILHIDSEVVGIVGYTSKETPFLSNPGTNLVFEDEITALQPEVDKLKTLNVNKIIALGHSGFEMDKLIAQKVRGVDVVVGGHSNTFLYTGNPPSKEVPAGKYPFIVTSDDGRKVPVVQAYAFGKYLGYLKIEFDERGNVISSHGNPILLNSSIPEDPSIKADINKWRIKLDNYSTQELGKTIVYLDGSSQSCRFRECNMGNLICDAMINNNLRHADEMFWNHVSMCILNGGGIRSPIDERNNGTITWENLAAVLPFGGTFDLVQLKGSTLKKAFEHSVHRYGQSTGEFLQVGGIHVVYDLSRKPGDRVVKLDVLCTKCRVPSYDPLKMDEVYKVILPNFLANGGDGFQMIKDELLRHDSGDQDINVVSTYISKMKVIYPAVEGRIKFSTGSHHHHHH
Protocol: as §1

B1: MEDI9447 (antibody, human IgG1, lambda, V domains shown)
VH: EVQLLESGGGLVQPGGSLRLSCAASGFTFSSYAYSWVRQAPGKGLEWVSAISGSGGRTYYADSVKGRFTISRDNSKNTLYLQMNSLRAEDTAVYYCARLGYGRVDEWGRGTLVTVSS
VL: QSVLTQPPSASGTPGQRVTISCSGSLSNIGRNPVNWYQQLPGTAPKLLIYLDNLRLSGVPDRFSGSKSGTSASLAISGLQSEDEADYYCATWDDSHPGWTFGGGTKLTVLG
notes: Human IgG1-TM (L234F, L235E, P331S), lambda light chain; also called clone 10.3 antibody; 73combo3
With B1 the binding result [1] was “no binding”, the Kd (KO_Cterm CD73 chimera) was 1.7 pM and the koff (KO_Cterm CD73 chimera) was 8.1e-06 s⁻¹. The kon (KO_Cterm CD73 chimera) was 4.75e+06 M⁻¹ s⁻¹, the Kd (HDX_E1 CD73 chimera) was 9.9 pM and the koff (HDX_E1 CD73 chimera) was 2.12e-05 s⁻¹. It also gave a kon (HDX_E1 CD73 chimera) of 2.15e+06 M⁻¹ s⁻¹.
